The record followed here is article PMC3902904, “Intrinsically disordered regions of nucleophosmin/B23 regulate its RNA binding activity through their inter- and intra-molecular association” (Nucleic Acids Research, 2013).

In one series the test system is GST-B23.1-CRD (human). Put plainly: GST pull-down. The note with it: total RNA, 300 mM NaCl wash; Sucrose gradient 15-40%, 5 µg protein with 10 µg 293T total RNA (buffer not given in the material); GST pull-down 2 µg protein, 5 µg total RNA, wash 300 mM ….
A further series concerns GST-B23.1-CR (human). Put plainly: GST pull-down. The note with it: total RNA, 300 mM NaCl wash; Sucrose gradient 15-40%, 5 µg protein with 10 µg 293T total RNA (buffer not given in the material); GST pull-down 2 µg protein, 5 µg total RNA, wash 300 mM ….
Another series addresses His-B23.1-ΔN (human) (UniProt P06748). Put plainly: cross-linking; 0.1% glutaraldehyde, 10 min, room temperature, 20 mM Hepes-NaOH pH 7.9, 50 mM NaCl; SDS-PAGE, CBB staining; increased protein concentration (3.0 and 4.5 µM; lanes 5 and 6 at 4.5 µM).
A further series concerns the target T1, GST-B23.1-CR (human, UniProt P06748 189-294).
T1 construct: nucleophosmin NPM1/B23, variant B23.1, human, basic IDR and CTD; amplified with the same forward primer as CR1 (which begins at 189, KAPVKK) and the T7 terminator primer; also called unphosphorylated GST-B23.1-CR; source: E. coli BL21 (DE3), purified (Glutathione sepharose, MNase-treated)
Put plainly: native gel or EMSA; GST-B23.1-A (0.5 µg) mixed with increasing amounts (0.5, 1.0, 2.0, 4.0 µg) of the other GST-tagged fragment in 10 µl buffer H, 30 min, room temperature; 6% native PAGE in 0.5x TBE, CBB staining. The note with it: both partners purified. (Mobility shift assays separate free from complexed probe on a gel.)

For a further series, the target named is T2, GST-B23.1-CRA (human, UniProt P06748 189-294, threonine 199 replaced with alanine (A) | threonine 219 replaced with alanine …).
T2 construct: nucleophosmin NPM1/B23, variant B23.1, human, B23.1-CR with threonines 199, 219, 234 and 237 replaced with alanine; source: E. coli BL21 (DE3), purified (Glutathione sepharose, MNase-treated)
T2 sequence (P06748 other isoform, or with tags, fused parts or gaps with the stated changes): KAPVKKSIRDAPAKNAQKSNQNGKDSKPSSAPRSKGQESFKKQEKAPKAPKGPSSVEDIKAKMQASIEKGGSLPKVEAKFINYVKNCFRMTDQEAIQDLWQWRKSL
Described as above. The note with it: both partners purified.

Another series deals with T3, GST-B23.1-CR1 (human, UniProt P06748 189-259).
T3 construct: nucleophosmin NPM1/B23, variant B23.1, human, amino acids 189-259 (basic IDR); limits are printed for B23.1-CR1 in the CD experiment; also called bIDR; basic IDR; source: E. coli BL21 (DE3), purified (Glutathione sepharose, MNase-treated)
T3 sequence (P06748 189-259): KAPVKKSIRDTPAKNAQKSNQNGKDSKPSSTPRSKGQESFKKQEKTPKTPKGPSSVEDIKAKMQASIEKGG
The series is described as above. Particulars: both partners purified.

Another series deals with T4, GST-B23.1-CRD (human, UniProt P06748 189-294, threonine 199 replaced with aspartic acid (D) | threonine 219 replaced with …).
T4 construct: nucleophosmin NPM1/B23, variant B23.1, human, B23.1-CR with threonines 199, 219, 234 and 237 replaced with aspartic acid; also called phosphomimetic mutant; source: E. coli BL21 (DE3), purified (Glutathione sepharose, MNase-treated)
T4 sequence (P06748 other isoform, or with tags, fused parts or gaps with the stated changes): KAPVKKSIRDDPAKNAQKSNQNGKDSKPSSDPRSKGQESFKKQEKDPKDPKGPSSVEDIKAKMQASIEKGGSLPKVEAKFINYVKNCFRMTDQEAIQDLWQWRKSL
The series is described as above. Particulars: both partners purified.

T1 sequence (P06748 189-294): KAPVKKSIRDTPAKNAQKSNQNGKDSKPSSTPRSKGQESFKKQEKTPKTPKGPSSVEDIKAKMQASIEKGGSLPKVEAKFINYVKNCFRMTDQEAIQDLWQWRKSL

18S rRNA showed a binding signal (% of GST-B23.1-CR) with GST-B23.1-CRD (human) of 25. In the series with GST-B23.1-CR (human), this molecule had a binding signal (% (reference)) of 100.
Turning to “His-B23.1-ΔN (from UniProt P06748 120-294) (domain or fragment)”, the stoichiometry N (usually a count of units in the complex or per binding partner) in the series with His-B23.1-ΔN (human) turned out to be 2.
In the series with GST-B23.1-CRD (human), 28S rRNA came in with a binding signal (% of GST-B23.1-CR) of 35. In addition, in the series on GST-B23.1-CR (human), the binding signal (% (reference)) turned out to be 100.

B1: GST-B23.1-A (domain or fragment, human, UniProt P06748 120-188, looked up)
chain: EEDAESEDEEEEDVKLLSISGKRSAPGGGSKVPQKKVKLAADEDDDDDDEEDDDEDDDDDDFDDEEAEE
notes: nucleophosmin NPM1/B23, variant B23.1 (longest variant), human, amino acids 120-188 (acidic IDR); The construction of pGEX2T-B23.1-A is not described in the methods; also called GST-tagged B23-A; aIDR; source: E. coli BL21 (DE3), purified (Glutathione sepharose, MNase-treated)
Take B1: the binding result in the series with GST-B23.1-CR, with GST-B23.1-CRA, with GST-B23.1-CR1 and in the series with GST-B23.1-CRD was “binds” in each case.
